Test results published in patent US20260049134A1 (UNIVERSITY OF FLORIDA RESEARCH FOUNDATION, published 2026).

biological target: T1, PTPRG, endogenous in H929 multiple myeloma cells (human, UniProt P23470 20-1445); test: flow cytometry, IgG1 on H929 cells
T1 construct: Native protein on H929 cells (flow cytometry, siRNA knockdown) and in H929 lysates (IP/MS); also called phosphatase receptor type γ
Protocol: Staining protocol. Cells were harvested (5×10⁴ cells per sample), washed once with phosphate-buffered saline (PBS) at RT, and a second time with ice-cold FACS buffer (PBS, 0.5% BSA, 2 mM EDTA, 0.1% NaN₃). Cells were stained in 50 μL of primary antibody for 30 min on ice, washed twice with 100 μL FACS buffer, stained with 50 μL of diluted secondary antibody, washed two more times in FACS, and then resuspended in 50 μL FACS buffer. Samples were acquired on an Accuri C6 Plus or a BD FACSCanto II flow cytometer (both from BD Biosciences). Data were analyzed using FlowJo version 10 software. Primary antibodies: Fab (10 μg/mL), IgG1 (0.1 to 50 μg/mL), or 25 μL polyclonal Fabs from periplasmic extracts. Polyclonal Fabs were produced by diluting bacterial stocks by a factor of 100 in autoinduction media and incubating overnight to induce expression as previously described. […] Viability stains: DAPI (Cell Signaling Technology) or SYTOX AADvanced Dead Cell Stain (Thermo Fisher Scientific). Labeling: The panel of chimeric rabbit/human IgG1s was labeled using the Alexa Fluor 647 Labeling Kit (Thermo Fisher Scientific, #A20173) to facilitate single-step staining. Competition: Unlabeled IgG1s were added at saturating concentrations of 60 μg/mL to block the target receptors, incubating on ice for 30 min, followed by the addition of an equal volume of the Alexa Fluor 647 labeled antibody at 2 μg/mL, and the mixture was incubated on ice for another 30 min.

T1 sequence (P23470 20-1445 limits assumed): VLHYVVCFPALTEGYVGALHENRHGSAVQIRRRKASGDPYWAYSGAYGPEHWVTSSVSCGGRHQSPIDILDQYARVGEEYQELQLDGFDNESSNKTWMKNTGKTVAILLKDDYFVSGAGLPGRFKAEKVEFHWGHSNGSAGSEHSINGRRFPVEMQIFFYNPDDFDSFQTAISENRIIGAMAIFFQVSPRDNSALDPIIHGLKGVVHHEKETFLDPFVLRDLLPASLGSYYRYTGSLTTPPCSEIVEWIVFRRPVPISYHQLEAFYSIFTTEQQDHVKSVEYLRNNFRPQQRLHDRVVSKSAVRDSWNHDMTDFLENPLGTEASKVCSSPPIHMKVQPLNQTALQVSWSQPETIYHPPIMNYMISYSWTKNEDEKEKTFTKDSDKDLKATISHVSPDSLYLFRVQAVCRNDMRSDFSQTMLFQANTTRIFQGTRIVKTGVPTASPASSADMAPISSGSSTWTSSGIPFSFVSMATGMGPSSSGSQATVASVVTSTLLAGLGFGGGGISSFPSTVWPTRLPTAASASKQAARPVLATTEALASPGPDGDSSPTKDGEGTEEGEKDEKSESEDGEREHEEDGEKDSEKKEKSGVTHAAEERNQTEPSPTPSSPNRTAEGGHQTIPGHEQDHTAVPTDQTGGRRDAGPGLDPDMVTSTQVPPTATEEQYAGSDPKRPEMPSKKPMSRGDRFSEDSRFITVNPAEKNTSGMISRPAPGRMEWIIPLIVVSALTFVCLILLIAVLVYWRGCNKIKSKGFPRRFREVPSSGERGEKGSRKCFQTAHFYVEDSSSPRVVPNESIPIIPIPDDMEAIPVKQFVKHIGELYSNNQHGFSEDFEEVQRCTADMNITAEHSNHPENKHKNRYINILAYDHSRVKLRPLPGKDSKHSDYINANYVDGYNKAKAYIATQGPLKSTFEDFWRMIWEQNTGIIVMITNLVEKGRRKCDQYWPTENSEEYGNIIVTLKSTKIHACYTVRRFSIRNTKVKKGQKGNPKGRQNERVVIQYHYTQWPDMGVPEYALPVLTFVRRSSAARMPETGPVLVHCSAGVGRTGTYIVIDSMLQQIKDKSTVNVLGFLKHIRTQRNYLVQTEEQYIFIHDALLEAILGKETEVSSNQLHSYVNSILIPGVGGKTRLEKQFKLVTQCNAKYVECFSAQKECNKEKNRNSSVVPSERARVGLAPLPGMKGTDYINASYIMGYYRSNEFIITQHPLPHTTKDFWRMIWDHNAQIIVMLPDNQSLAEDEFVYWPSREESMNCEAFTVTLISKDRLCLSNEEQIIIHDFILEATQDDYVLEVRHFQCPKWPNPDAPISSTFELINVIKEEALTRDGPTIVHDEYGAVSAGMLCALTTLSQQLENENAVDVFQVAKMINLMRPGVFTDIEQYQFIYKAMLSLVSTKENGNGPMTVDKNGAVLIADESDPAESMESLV

Row | Binder | antibody-bound positive cells (%)
1 | TH9-0022 (antibody, human IgG1, kappa, L234A L235A, V domains shown, also called TH9-022; negative control IgG1) VH: QSLEESGGRLVTPGTPLTLTCTVSGFSLSSYAMNWVRQAPGKGLEWIGIINSYGSTYYASWAKGRFTISKTSTTVDLKITSPTTEDTATYFCARVTYDSYGYGYAPYGMDLWGPGTLVTVSS VL: LVMTQTPSSTSNAVGGTVTIKCQASQSIGNVLAWYQQKPGQPPKLLIYAASTLASGVPSRVGGSRSGTEYTLTISGVQREDAATYYCLGSDSDSDIAFGGGTELEILR | 2.7%

biological target: T2, GARS, endogenous in H929 multiple myeloma cells (human, UniProt P41250 37-739, limits assumed); test: flow cytometry, H929 + ICAM1 siRNA; None 455; surface target GARS putative
T2 construct: Native protein pulled down from H929 lysates; also called Glycyl-tRNA synthetase; GlyRS
T2 sequence: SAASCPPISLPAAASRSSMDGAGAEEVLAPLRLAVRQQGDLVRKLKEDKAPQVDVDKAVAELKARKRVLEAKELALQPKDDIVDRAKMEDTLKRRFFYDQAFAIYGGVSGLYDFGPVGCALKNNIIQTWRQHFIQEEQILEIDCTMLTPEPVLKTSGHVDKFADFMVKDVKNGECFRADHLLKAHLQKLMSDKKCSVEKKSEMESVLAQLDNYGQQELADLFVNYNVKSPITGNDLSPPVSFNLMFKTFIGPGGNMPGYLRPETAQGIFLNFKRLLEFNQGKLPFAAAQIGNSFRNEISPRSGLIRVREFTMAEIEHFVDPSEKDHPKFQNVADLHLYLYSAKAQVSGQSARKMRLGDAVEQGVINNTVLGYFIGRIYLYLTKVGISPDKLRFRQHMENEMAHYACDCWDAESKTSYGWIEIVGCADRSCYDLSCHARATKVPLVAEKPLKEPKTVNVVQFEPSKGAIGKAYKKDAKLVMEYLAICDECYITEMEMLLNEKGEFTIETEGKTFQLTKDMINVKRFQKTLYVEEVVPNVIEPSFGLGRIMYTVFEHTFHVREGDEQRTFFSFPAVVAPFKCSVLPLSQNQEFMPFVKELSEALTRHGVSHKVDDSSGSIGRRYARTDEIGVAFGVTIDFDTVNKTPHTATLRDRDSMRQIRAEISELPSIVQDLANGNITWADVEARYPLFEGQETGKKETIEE

Row | Binder | mAb binding (MFI)
2 | HW-28 chimeric rabbit-human IgG1 LA/LA/PG (antibody, V domains shown, Fc-silenced (L234A/L235A/P329G) IgG1, lambda; Alexa Fluor 647-labeled in single-step flow cytometry; Cluster C-45) VH: QKQLVESGGRLVTPGTPLTLTCTASGFSLSSNAMSWVRQAPGEGLQWIGTISSGGSTYYASWAKGRFTISKTSTTVTLKMTSLTTEDTATYFCARGADLHRLWGPGTLVTVSS VL: SFVLTQPASVQVNLGQTVSLTCTGKPLSRSFASWYQQKPGQAPVLVIYRDTSRPSGVPDRFSGSSSGNTATLTISGAQAGDEADYYCATSDGSGSSYQYVFGGGTQLTVTG | 33900
3 | HW-45 chimeric rabbit-human IgG1 LA/LA/PG (antibody, V domains shown, Fc-silenced (L234A/L235A/P329G) IgG1, lambda; Alexa Fluor 647-labeled in single-step flow cytometry; Prototype of cluster C-45) VH: QKQLVESGGRLVTPGTPLTLTCTVSGFSLSSYAMGWFRQAPGKGLEWIGIINSYGSTYYASWAKGRFTISKTSTTVDLKITSPTTEDTATYFCGRRIGSARFDPWGPGTLVTVSS VL: SFVLTQPASVQVNLGQTVSLTCTADTLSRSYASWYQQKPGQAPVLLIYRDTRRPSGVPDRFSGSSSGNTATLTISGAQAGDEADYYCATSDGSGSSYRLVFGGGTQLTVTG | 20800
4 | HW-56 chimeric rabbit-human IgG1 LA/LA/PG (antibody, V domains shown, Fc-silenced (L234A/L235A/P329G) IgG1, kappa; Alexa Fluor 647-labeled in single-step flow cytometry; Cluster C-45) VH: QSVKESEGGLFKPTDTLTLTCTASGFTVSTNAVTWVRQAPGNGLEYIGTIGRSGSAYFASWAKRRSTLTRDINLNTVTLKMTSLTAADTATYFCVRGSPGYRTAISIWGPGTLVTISS VL: AVMTQTPSSTSAAVEGTVTINCQASQSISNRLSWFQQKPGQPPKLLIYQASTLASGVPSRFKGSGSGTEFTLTISGVQREDAATYYCLGSYSSSDASFGGGTKLEIKR | 497000
5 | HW-8 chimeric rabbit-human IgG1 LA/LA/PG (antibody, V domains shown, Fc-silenced (L234A/L235A/P329G) IgG1, kappa; Alexa Fluor 647-labeled in single-step flow cytometry; Cluster C-45) VH: QSLEESGGRLVTPGTPLTLTCTVSGFSLSSYAMSWVRQAPGKGLEWIGAISTGGSTTYASWAKGRFTISKTSSTTVDLKMTSLTTEDTATYFCVRHFRLWGPGTLVTISS VL: QVLTQTPSSVSAAVGGTVTIKCQASQSIGSALAWFQQKPGQRPKLLIYRASNLASGVPSRFKGSGSGTEFALTISGVQREDAATYYCLGGAAAVWAFGAGTNVEIKR | 11400
6 | HW-16 chimeric rabbit-human IgG1 LA/LA/PG (antibody, V domains shown, Fc-silenced (L234A/L235A/P329G) IgG1, kappa; Alexa Fluor 647-labeled in single-step flow cytometry; Cluster C-45) VH: QSLEESGGRLVTPGTPLTLTCTASGFSLSSYAMSWVRQAPGKGLEWIGTMPTGGGTYYASWAKGRFTISKTSTTVDLQITSPTTEDTATYFCAKHWNIWGPGTLVTISS VL: DIVLTQTPSSTSTAVGDTVTINCRASQSIGRNLAWFQQKPGQPPKLLIYRASNLASGVPSRFKGSGSRTQFTLTISGVQREDAATYYCLGSYSSSDTAFGGGTELEILR | 48900
7 | HW-81 chimeric rabbit-human IgG1 LA/LA/PG (antibody, V domains shown, Fc-silenced (L234A/L235A/P329G) IgG1, lambda; Alexa Fluor 647-labeled in single-step flow cytometry; Cluster C-45) VH: QKQLVESGGGLVTPGGTLTLTCTVSGFSLSSNGVSWVRQAPGKGLEYIGLIRSIGSTYYATWAKGRFTISKTSTTVDLKITSPTTEDTATYFCARGGYRNGFKLWGPGTLVTVSS VL: QPVLTQSPSVSAALGASAKLTCTLSSAHKTYYIEWYQQQHPGKAPRYLMQLQSDGSYTKGTGVPDRFSGSSSGADRYLIISSVQAEDEADYICGVIDSAVYVFGGGTQLTVTG | 640000
